Source: US20070031445A1 (BOARD OF REGENTS OF THE UNIVERSITY OF NEBRASKA, published 2007)
Where no end group is shown, it is not given here. [ ]: non-standard residue; d: D form.

T1: C5a receptor (C5aR) expressed on the surface of human PMNs (human, UniProt P21730 1-350)
T1 construct: whole, on cells; Endogenous receptor on intact human polymorphonuclear cells; also called C5aRs
T1 sequence (looked up): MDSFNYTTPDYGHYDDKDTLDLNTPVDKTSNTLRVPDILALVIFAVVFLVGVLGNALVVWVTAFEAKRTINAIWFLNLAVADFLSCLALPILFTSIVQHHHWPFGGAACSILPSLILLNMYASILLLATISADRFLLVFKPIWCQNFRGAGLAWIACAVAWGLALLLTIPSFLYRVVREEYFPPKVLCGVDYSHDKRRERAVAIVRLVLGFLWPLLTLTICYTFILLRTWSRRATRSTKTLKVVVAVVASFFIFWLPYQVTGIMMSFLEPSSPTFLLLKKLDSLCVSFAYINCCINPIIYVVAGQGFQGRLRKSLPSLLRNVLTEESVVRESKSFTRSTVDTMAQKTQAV

B1: IPQSLDSWWTSLYSFKPMPLaR (HBsAg CTL epitope attached directly to N-terminus of the C5a agonist) (peptide)
peptide: IPQSLDSWWTSLYSFKPMPL[dA]R
notes: Synthetic peptide; also called C5a-active construct without linker
B2: IPQSLDSWWTSLRRYSFKPMPLaR (double-Arg-linked C5a-active construct) (peptide)
peptide: IPQSLDSWWTSLRRYSFKPMPL[dA]R
notes: Synthetic peptide; also called RR-containing construct
B3: YSFKPMPLa[…] (C5a-inactive construct, C-terminus of agonist blocked by the HBsAg CTL epitope) (peptide)
peptide: YSFKPMPL[dA]RRRIPQSLDSWWTSL
notes: Synthetic peptide
B4: IPQSLDSWWTSLRRYSFKPMPLaRG (C5a-inactive construct, C-terminal carboxyl group blocked by a Gly residue) (peptide)
peptide: IPQSLDSWWTSLRRYSFKPMPL[dA]RG
notes: Synthetic peptide
B5: C5a C-terminal decapeptide agonist analog YSFKPMPLaR (peptide)
peptide: YSFKPMPL[dA]R
notes: Synthetic peptide; also called C5a agonist; peptide (2)
B6: IPQSLDSWWTSLRVRRYSFKPMPLaR (RVRR furin-sensitive-linked C5a-active construct) (peptide)
peptide: IPQSLDSWWTSLRVRRYSFKPMPL[dA]R
notes: Synthetic peptide; also called RVRR-containing construct
B7: natural C5a (ligand, UniProt P01031 678-751, looked up)
chain: TLQKKIEEIAAKYKHSVVKKCCYDGACVNNDETCEQRAARISLGPRCIKAFTECCVVASQLRANISHKDMQLGR
modifications: 125I label on the tracer form used in the competition assay
notes: C5a is only a fragment of it

Target: T1, C5a receptor (C5aR) expressed on the …
Test: competition with 125I-C5a on intact human PMNs (column headed EC50; 50% inhibition of 125I-C5a binding)

For B1, which IC50 is on record?
The IC50 was 3.69 µM.

Which IC50 does the source give for B2 here?
The IC50 was 0.416 µM.

For B3, which IC50 is on record?
The IC50 was 465 µM.

Which IC50 does the source give for B4 here?
The IC50 was 17 µM.

For B5, which IC50 is on record?
The IC50 was 2.34 µM.

How did the IC50 turn out when B6 was run?
Its IC50 is 0.529 µM.

B7 was tested. Which IC50 did it give?
Its IC50 is 0.0004 µM.

Target: T1, C5a receptor (C5aR) expressed on the …
Test: competition with 125I-C5a on intact human PMNs
Experimental: Statistical analysis of the values obtained from pharmacologic assays was performed using one-way analysis of variance (ANOVA).

Which “pD2 (-log IC50 (M))” value does the source give for B1 here?
Its value is 5.43 -log IC50 (M).

B2 was tested. Which “pD2 (-log IC50 (M))” value did it give?
The value was 6.38 -log IC50 (M).

How did the “pD2 (-log IC50 (M))” value turn out when B3 was run?
Its value is 3.33 -log IC50 (M).

B4 was tested. Which “pD2 (-log IC50 (M))” value did it give?
Its value is 4.77 -log IC50 (M).

How did the “pD2 (-log IC50 (M))” value turn out when B5 was run?
Its value is 5.63 -log IC50 (M).

B6 was tested. Which “pD2 (-log IC50 (M))” value did it give?
Its value is 6.28 -log IC50 (M).

With B7 as the binder, how does the “pD2 (-log IC50 (M))” value read?
The value was 9.43 -log IC50 (M).

Target: T1, C5a receptor (C5aR) expressed on the …
Test: cell-based or functional assay

Which “EC50, smooth muscle contraction of human umbilical artery” value (shortened to “EC50, smooth muscle contraction”) does the source give for B1 here?
Its value is 0.21 µM.

What about the “pD2, smooth muscle contraction of human umbilical artery” value (shortened to “pD2, smooth muscle contraction”) of the same binder?
Its value is 6.68 -log EC50 (M).

Which results are given for B2?
EC50, smooth muscle contraction of human umbilical artery: 0.161 µM; pD2, smooth muscle contraction of human umbilical artery: 6.79 -log EC50 (M)

Which results are given for B3?
EC50, smooth muscle contraction of human umbilical artery: 39.4 µM; pD2, smooth muscle contraction of human umbilical artery: 4.41 -log EC50 (M)

Which “EC50, smooth muscle contraction” value does the source give for B4 here?
The value was 6.78 µM.

And the “pD2, smooth muscle contraction” value?
Its value is 5.17 -log EC50 (M).

B5 was tested. Which “EC50, smooth muscle contraction” value did it give?
Its value is 0.01 µM.

B6 was tested. Which “EC50, smooth muscle contraction” value did it give?
The value was 0.18 µM.

And the “pD2, smooth muscle contraction” value?
The value was 6.67 -log EC50 (M).

Which “EC50, smooth muscle contraction” value does the source give for B7 here?
The value was 0.002 µM.

Target: T1, C5a receptor (C5aR) expressed on the …
Test: cell-based or functional assay
Remark: another data set of the same source

Which results are given for B1?
EC50, MPO release from human PMNs: 1.58 µM; pD2, MPO release from human PMNs: 5.8 -log EC50 (M)

With B2 as the binder, how does the “EC50, MPO release from human PMNs” value read?
The value was 0.54 µM.

And the “pD2, MPO release from human PMNs” value?
Its value is 6.27 -log EC50 (M).

How did the “EC50, MPO release from human PMNs” value turn out when B3 was run?
The value was greater than 1000 µM.

Which results are given for B4?
EC50, MPO release from human PMNs: 2.56 µM; pD2, MPO release from human PMNs: 5.59 -log EC50 (M)

B6 was tested. Which “EC50, MPO release from human PMNs” value did it give?
Its value is 2.15 µM.

And the “pD2, MPO release from human PMNs” value?
The value was 5.61 -log EC50 (M).

For B7, which “EC50, MPO release from human PMNs” value is on record?
Its value is 0.003 µM.
